For assay [1], the target named is T1, human DLL3 extracellular domain (ECD) with C-terminal 8xHis tag and Avi tag (human, UniProt Q9NYJ7 27-492).
T1 construct: extracellular domain; Expressed in Expi293, purified by IMAC and SEC; also called huDLL3; not shown: Avi tag
T1 sequence: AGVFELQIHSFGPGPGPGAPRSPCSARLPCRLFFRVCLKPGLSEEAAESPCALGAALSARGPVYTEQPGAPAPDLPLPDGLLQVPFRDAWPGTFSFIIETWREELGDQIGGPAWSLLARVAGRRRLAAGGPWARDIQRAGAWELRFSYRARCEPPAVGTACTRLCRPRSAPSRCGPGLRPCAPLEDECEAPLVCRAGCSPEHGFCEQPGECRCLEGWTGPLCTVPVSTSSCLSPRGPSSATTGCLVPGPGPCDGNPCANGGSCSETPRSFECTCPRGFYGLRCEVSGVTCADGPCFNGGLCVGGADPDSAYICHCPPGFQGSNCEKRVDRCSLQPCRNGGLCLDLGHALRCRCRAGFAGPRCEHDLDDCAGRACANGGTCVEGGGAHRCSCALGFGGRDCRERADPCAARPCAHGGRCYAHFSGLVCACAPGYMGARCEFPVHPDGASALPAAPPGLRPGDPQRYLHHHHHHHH
In words: SPR (Biacore), 37 C; scFv-Fc captured on chip, human DLL3 ECD in solution; 1:1 Langmuir fit. (In general: SPR reads the build-up and loss of mass on a sensor chip optically.)

The target in assay [2] is T2, mouse DLL3 extracellular domain (ECD) with C-terminal 8xHis tag and Avi tag (mouse, UniProt O88516 33-490).
T2 construct: extracellular domain; Expressed in Expi293, purified by IMAC and SEC; also called msDLL3; not shown: Avi tag
T2 sequence: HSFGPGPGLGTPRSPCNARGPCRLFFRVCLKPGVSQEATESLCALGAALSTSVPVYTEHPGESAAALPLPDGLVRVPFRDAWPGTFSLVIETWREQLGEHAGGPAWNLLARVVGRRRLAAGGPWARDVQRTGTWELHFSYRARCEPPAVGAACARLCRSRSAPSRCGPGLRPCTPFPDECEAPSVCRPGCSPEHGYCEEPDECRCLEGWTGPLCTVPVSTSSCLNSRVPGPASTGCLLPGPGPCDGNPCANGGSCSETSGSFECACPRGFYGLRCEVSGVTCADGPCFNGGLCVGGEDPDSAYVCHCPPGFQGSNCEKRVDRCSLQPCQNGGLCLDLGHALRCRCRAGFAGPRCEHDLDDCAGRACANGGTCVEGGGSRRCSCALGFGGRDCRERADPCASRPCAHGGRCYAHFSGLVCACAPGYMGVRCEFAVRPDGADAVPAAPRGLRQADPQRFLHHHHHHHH
In words: SPR (Biacore), 37 C; scFv-Fc captured on chip, mouse DLL3 ECD in solution; 1:1 Langmuir fit.

Assay [3] concerns the target T1, human DLL3 extracellular domain (ECD) …. The assay can be described thus: SPR (Biacore), 37 C; IgG captured on chip, human DLL3 ECD in solution; 1:1 Langmuir fit.
Method: The antibody binding kinetics were determined by surface plasmon resonance (Biacore™ surface plasmon resonance (SPR) system, GE Healthcare Bio-Sciences, Pittsburgh Pa.). The antibodies diluted in HBS-T+ running buffer (0.01 M HEPES pH 7.4, 0.15 M NaCl, 0.05% v/v Tween20, 1 mg/mL BSA) were captured on a CM4 chip immobilized with an antibody specific for the anti-DLL3 antibody constant domains. Purified DLL3 was serially diluted into HBS-T+, injected for 2 min at 30 uL/min and a dissociation time of 10 min then the surface regenerated with either 10 mM Glycine-HCl pH 1.7 or phosphoric acid between injections. […] Equilibrium dissociation constant (Kd) values are calculated as koff/kₒₙ.
The target of assay [4] is T3, cynomolgus monkey DLL3 extracellular domain (ECD) with C-terminal 8xHis tag and Avi tag (cynomolgus monkey, UniProt A0A2K5WSR1 27-490).
T3 construct: extracellular domain; Expressed in Expi293, purified by IMAC and SEC; also called cynoDLL3; cyno DLL3; not shown: Avi tag
T3 sequence: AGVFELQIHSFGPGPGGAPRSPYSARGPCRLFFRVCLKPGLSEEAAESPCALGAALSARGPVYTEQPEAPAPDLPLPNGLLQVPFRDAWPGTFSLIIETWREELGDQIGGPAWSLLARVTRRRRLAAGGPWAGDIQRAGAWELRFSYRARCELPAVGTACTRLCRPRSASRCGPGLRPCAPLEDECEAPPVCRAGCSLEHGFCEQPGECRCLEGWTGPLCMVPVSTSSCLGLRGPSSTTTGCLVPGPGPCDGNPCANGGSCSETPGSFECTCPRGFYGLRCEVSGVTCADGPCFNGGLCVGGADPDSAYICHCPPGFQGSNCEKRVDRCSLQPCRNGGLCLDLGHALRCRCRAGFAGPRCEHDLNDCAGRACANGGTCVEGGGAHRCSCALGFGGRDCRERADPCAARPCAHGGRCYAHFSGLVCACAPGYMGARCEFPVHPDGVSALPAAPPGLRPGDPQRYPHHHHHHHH
In words: SPR (Biacore), 37 C; scFv-Fc captured on chip, cyno DLL3 ECD in solution; 1:1 Langmuir fit.

A value given as a limit tells only on which side of the number the result lay.

What is called Kd is the concentration at which binding is half-saturated.

B1: 7F9 scFv-Fc fusion (Fc fusion, not shown: a dimerising Fc or GST)
scFv: EVQLVESGGGLVQPGGSLRLSCAASGFTFSSHDMHWVRQATGKGLEWVSAIGIAGDTYYSGSVKGRFTISRENAKNSLYLQMNSLRAGDTAVYYCARANWGEGAFDIWGQGTMVTVSSGGGGSGGGGSGGGGSGGGGSDIQMTQSPSSLSASVGDRVTITCRASQGISDYLAWYQQKPGKIPKLLIYAASTLQSGVPSRFSGSGSGTDFTLTISSLQPEDVATYYCQKYNSVPLTFGGGTKVEIK
notes: scFv-Fc expressed in Expi293
The molecule B1 returned a Kd in assay [1] of 0.0273 µM.

B2: 6F8 scFv-Fc fusion (Fc fusion, not shown: a dimerising Fc or GST)
scFv: QVQLVQSGAEVKKPGSSVKVSCKASGGTFTNYCISWVRQAPGQGLEWMGGIIPIFGTTNYAQTFQGRVTITADKSTSTAYMELSSLRSEDTAVYYCARDNGDRYYYDMDVWGQGTTVTVSSGGGGSGGGGSGGGGSGGGGSQSVLTQPPSVSAAPGQKVTISCSGSSSNIGNNYVSWYQQLPGTAPKLLIYDNNKRPSGIPDRFSGSKSGTSATLGITGLQTGDEADYYCGTWDSSLSAVVFGGGTKLTVL
notes: scFv-Fc expressed in Expi293
For the molecule B2, the results for the Kd in assay [1] and in assay [2] were 0.0408 µM and 0.0193 µM, respectively.

B3: anti-DLL3 antibody 4H8 (IgG) (antibody, V domains shown)
VH: QVQLQQSGPGLVKPSQTLSLTCAISGDSVSSNSATWNWIRQSPSRGLEWLGRTYYRSKWYDDYAVSVKSRITINPDTSKNHLSLHLNSVTPEDTAVYYCAGGGLVGAPDGFDVWGQGTMVTVSS
VL: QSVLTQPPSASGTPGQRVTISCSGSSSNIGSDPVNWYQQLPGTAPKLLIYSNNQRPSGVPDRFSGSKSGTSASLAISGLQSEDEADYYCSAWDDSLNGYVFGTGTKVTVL
notes: Full-length monoclonal antibody (IgG)
The molecule B3 registered a Kd in assay [3] of 0.0185 µM.

B4: anti-DLL3 antibody 11A3 (IgG) (antibody, V domains shown)
VH: QVQLQESGPGLVKPSETLSLTCTVSSDSISNYYWSWIRQPPGKGLEWISYIYYSGITNYNPSLKSRVTISVDTSKNQFSLKLSSVTAADTAVYYCARITVTGFYFDYWGQGTLVTVSS
VL: EIVLTQSPGTLSLSPGERATLSCRASQSISRSYLAWYQQKPGQAPRHLIYGASSRATGIPDRFSGSGSGTDFILTISRLEPEDFAVYYCQQYDTSPLTFGGGTKVEIK
notes: as for B3
In assay [3], B4 displayed a dissociation constant Kd of 0.0048 µM.

B5: 2A6.C5 scFv-Fc fusion (Fc fusion, not shown: a dimerising Fc or GST)
scFv: QVQLQESGPGLVKPSETLSLTCTVSNVSISSYYWSWIRQPPGKGLEWIGYIYYSGTTNYNPSLKSRVTMSVDTSKNQFSLKLSSVTAADTAVYFCARLSNWGFAFDIWGQGTMVTFSSGGGGSGGGGSGGGGSGGGGSEIVLTQSPGTLSLSPGERATLSCRASQTISSSYLAWYQQKPGQAPRLLIYGASSRATGIPDRFSGSGSGTEFTLTISRLEPEDFAVYYCQQYGWSPITFGQGTRLEIK
notes: scFv-Fc expressed in Expi293
In the case of B5, the values for the Kd in assay [1], in assay [2] and in assay [4] were 0.0484 µM, 0.0421 µM and 0.0468 µM, respectively.

B6: 9D3 scFv-Fc fusion (Fc fusion, not shown: a dimerising Fc or GST)
scFv: QVQLQESGPGLVKPSETLSLTCTVSDDSISNYYWSWIRQPPGKGLEWIGYIFYSGTTNHNPSLKSRLTISLDKAKNQFSLRLSSVTAADTAVYYCARVFNWGFAFDIWGQGTMVTVSSGGGGSGGGGSGGGGSGGGGSEIVLTQSPGTLSLSPGERATLSCRASQRISRTYLAWYQQKPGQAPRLLIYGASSRATGIPDRFTGSGSGTDFTLTISRLEPEDFAVYYCQQYGTSPLTFGGGTKVEIN
notes: scFv-Fc expressed in Expi293
In the case of B6, the Kd in assay [1] was 0.0233 µM; in assay [2], 0.00719 µM; in assay [4], 0.0218 µM.

B7: 6D8 scFv-Fc fusion (Fc fusion, not shown: a dimerising Fc or GST)
scFv: QITLKESGPTLVKPTQTLTLTCTFSGFSLSTRGVGVGWIRQPPGKALEWLALIYWNDDKRYSPSLQTRLTITKDTPKNQVVLTMTNMDPVDTATYYCARSNWGNWYFALWGRGTLVTVSSGGGGSGGGGSGGGGSGGGGSEIVLTQSPATLSLSPGERATLSCRASQSVSSYLAWYQQKPGQAPRLLIYDAFYRATGIPARFSGSGSGTDFTLTISSLEPEDFAVYYCQHRSNWPITFGQGTRLEIK
notes: scFv-Fc expressed in Expi293
Regarding B7, the equilibrium dissociation constant (Kd) in assay [1] is below 0.0012 µM; in assay [2] it was below 0.0015 µM.

B8: 3F2 scFv-Fc fusion (Fc fusion, not shown: a dimerising Fc or GST)
scFv: QVQLQESGPGLVKPSGTLSLTCAVSGGSISSNNWWSWVRQPPGKGLEWIGDIHHSGSTNYKPSLKSRVTISVDKSKNQFSLNLISVTAADTAVYYCAREAGGYFDYWGQGILVTVSSGGGGSGGGGSGGGGSGGGGSDIQMTQSPSTLSASVGDRVTITCRASQSISSWLAWYQQKPGKAPKLLISKASSLESGVPSRFSGSGSGPEFTLTISSLQPADFATYYCQQYNSYSTFGQGTKLEIK
notes: scFv-Fc expressed in Expi293
Turning to B8, the figures for the Kd in assay [1] and in assay [4] were 0.00818 µM and 0.00681 µM, respectively.

B9: 9H12-K scFv-Fc fusion (Fc fusion, not shown: a dimerising Fc or GST)
scFv: QVQLVQSGAEVKKPGASVKVSCKASGYTFTGYSIHWVRQAPGQGLEWMGWINPNSGGTFYAQKFQGRVTMTRDTSISTVYMELSRLRSDDTAVYYCARDGWGDYYYYGLDVWGQGTTVTVSLGGGGSGGGGSGGGGSGGGGSDIQMTQSPSSVSASVGDRVTITCRASQDISSWLAWYQQKPGKAPKLLIYTASSLQGGVPSRFSGSGSGTDFTLTISSLQPEDLATYSCQQANVFPYTFGQGTKLEIK
notes: scFv-Fc expressed in Expi293
In assay [1], B9 yielded a dissociation constant Kd of 0.186 µM.

B10: anti-DLL3 antibody 2A6.C5 (IgG) (antibody, V domains shown)
VH: QVQLQESGPGLVKPSETLSLTCTVSNVSISSYYWSWIRQPPGKGLEWIGYIYYSGTTNYNPSLKSRVTMSVDTSKNQFSLKLSSVTAADTAVYFCARLSNWGFAFDIWGQGTMVTFSS
VL: EIVLTQSPGTLSLSPGERATLSCRASQTISSSYLAWYQQKPGQAPRLLIYGASSRATGIPDRFSGSGSGTEFTLTISRLEPEDFAVYYCQQYGWSPITFGQGTRLEIK
notes: as for B3
In assay [3], B10 showed a Kd of 0.0234 µM.

B11: 17A2 scFv-Fc fusion (Fc fusion, not shown: a dimerising Fc or GST)
scFv: QVQLQESGPGLVKPSGTLSLTCVVFGDSISSSNWWSWVRQPPGKGLEWIGEVFHSGSTNYNPSLKSRVTISVDKSKNQFSLKLSSVTAADTAVYYCARAAVAGALDYWGQGTLVTVSSGGGGSGGGGSGGGGSGGGGSDIVMTQSPDSLAVSLGERATINCKSSQSVLYSSNNKNYLAWYQQKPGQPPNLLVYWASTRESGVPDRFSGAGSGTDFTLTISSLQAEDVAVYYCQQYYGTSWTFGQGTKVEIK
notes: scFv-Fc expressed in Expi293
Consider B11, for which the Kd in assay [1] was 0.00382 µM; in assay [4], below 0.00097 µM.

B12: 8E11 scFv-Fc fusion (Fc fusion, not shown: a dimerising Fc or GST)
scFv: QVQLQESGPGLVKPSETLSLTCTVSGDSISNYYWTWIRQPPGKGLEWIGYIYYSGTTNSNPSLKSRVTVSLDTSKSQFSLNLSSVTAADTAVYYCARVFNRGFAFDIWGQGTMVTVSSGGGGSGGGGSGGGGSGGGGSEIVLTQSPGTLSLSPGERATLSCRASQRISNTYLAWYQQKPGQAPRLLIYGASSRATGIPDRFSGSGSGTDFTLTISRLEPEDFAAYYCQQYDTSPLTFGGGTKVEIK
notes: scFv-Fc expressed in Expi293
Consider B12, for which the Kd was 0.0112 µM in assay [1], 0.00703 µM in assay [2] and 0.0105 µM in assay [4].

B13: 2G1 scFv-Fc fusion (Fc fusion, not shown: a dimerising Fc or GST)
scFv: QLQLQESGPGLVKPSETLSLTCTVSGGSISSSSYYWGWIRQPPGKGLEWIGSIYYSGNIYHNPSLKSRVSISVDTSKNQFSLRLSSVTAADTAVYYCAREIIVGATHFDYWGQGTLVTVSSGGGGSGGGGSGGGGSGGGGSAIQMTQSPSSLSASVGDRVTITCRASQGIRNDLGWYQQKPGKAPELLIYAASSLQSGVPSRFSGSGSGTDFTLTISSLQPEDFATYYCLQDYNYPLTFGPGTKVDIK
notes: scFv-Fc expressed in Expi293
Take B13: the Kd in assay [1] came out at 0.0172 µM; in assay [2], 0.00261 µM; in assay [4] it was 0.0205 µM.

The values are drawn from patent US20230287120A1 (ALLOGENE THERAPEUTICS, published 2023).
